This data set can be described thus: label from the status in PepcDB records.
With “MCWVCGENLQAQPYMFRNVVMSDGLSGLLVNAIYKDSEGFIWLGTDNGLDRFDGVKVKHFEFRGVDSGRKKRVNCITETDNKQLWIGNGIGLWRLNRSGSELQRIVPEKIDCAVNALLADGDVLYIGTERGLFIQKDGQLLQVQTDKNMLAACNRIMDLCLNEDKSVLWLATVQGLFSYSLKDGQINSWHFRENVPEADYFRCLTRIGETLYLGTMSQGVVCFDIPKQTFAHTVSLGCDVISDISGDGKETVYIATDGNGVHFLSHKDRKVVRRFFHDVNDKEGIRSNSIYSLLVDDRGAVWVGHFQAGLDYSLYQNGLFRTYAYPPQFNSANLSIRSFVNRGPEKVIGSRDGLFYINEATGIVKSFVKPVLTSDLILTICFYEGEYYIGTYGGGMMVLNPQTLSLKYFTQGDTELFQKGHIFCVKPDNRGNLWIGTSQGLFCYNGQTKQIKNFTSTNSQLPEGNVYEVSFDSTGKGWIATETGMCIYDPASQSLRSNVFPEGFVHKDKVRTIYEDAEHNLYFIREKGSLFTSTLTMDHFRNQSVLSTLPDNSLMSITEDNQGWLWVGCNDGLLRIKEEGEEYDSFTFNDGVPGPTFTNGAAYKDERGLLWFGNTKGLIYVDPKQVDEVRGKVRPIVFTDILANGVSINKSSLKYNQNNLTFCFTDFAYGLPSALLYEYKLEGADSDWKLLTAQSEVSYYGLSSGTYTFCVRIPGNEQSMAIYKVTVQPMIPWWGWVILAISIILIVVLVRYYVRKSAPLVTEVHEISSEEEEEEEKTAEPHPAEEKYKANRMSEAECKELHDRLVAYVEKEKPYINPDLKMGELAAALHTSSHSLSYLLNQYLNQSYYDFINEYRVAQFKKMVEDSDYSRYTLTALAELCGFSSRASFFRSFKKSTGVTPNEYIRSIGGTAKDE”, the protein production entry is “failed”.
As for “MLEKSLAILFALLILATLINRFLVWRLPERKGDEVTLRIRTWWGIVICFSLVISGPRWMTLTFFALISFLALKEYCTLISVHFPRWLYWVIPLNYLLIGFNCFELFLLFIPLAGFLILATWRVFVGDPSGFLHTVSAIFCGWIMTVFTLSHAAWLLMLPTINIQGGALLVLFLLALTESNDIAQYLWGKSCGRRKVVPKVSPGKTLEGLVGGVITTMIASLIIGPLLTPLNTLQVLLAGLLIGISGFCGDVVMSATKRDVGVKDSGKLLPGHGGLLDRIDSLIFTAPVFFYFIRYCCY”, the entry is “failed”; as for “MAASTSSSSSSSSSSLSSPSPCTWRYMTFTSFHGPDVRNTFLSHLRKQFNTNGITMFDDQRMERSQTLAPTLTQAIRESKIYIVLLSKNYASSSWCLDELLEILNCKEKRGQRVMTIFYGVNPSDVRKQTGEFGIAFNETCARKTEEERRKWSHALTCVGNITGVHVQDRDDEANMIEKIATDVSEKLNATESKDFDEMVGIKAHLTKIESLLSLDYDKVKIVGISGPAGIGKSTIARALHNLLSSSFHLSCFMENLISQSNPHSSLEYSSKLSLQEQLLSQVLNEKDIRIRHLGAIQERLHDQRVLIILDDVTSLEQLEVLANIKWYGPGSRIIVITKKKDILVQHGICDIYHVGFPTDADALKIFCLSAYRQTSPPDGSMKIHECEMFIKICGNLPLHLHVLGSALRGRSYGRVQSLCNLVSLADFV”, “failed”.
“MSNKIVTLEINLEPSDNRRLASLCGPFDDNIKHLERRLGVEINHRSDHFTIVGKPHTSAAALDILKTLYVDTAPVRGEIPDIEPEQIHLAIKESGVLEQNTESSIAHGKEVFVKTKKGVIKPRTPNQAQYLVNMVTHDISFGIGPAGTGKTYLAVAAAVDALERQEIRRILLTRPAVEAGEKLGFLPGDLSQKVDPYLRPLYDALFEMLGFERVEKLIERNVIEVAPLAYMRGRTLNDAFIILDESQNTTVEQMKMFLTRIGFNSRAVITGDVTQIDLPRGAKSGLRHAIEVLSEVDDISFNFFQADDVVRHPVVARIVNAYEKWEAQDQKERKEFEKRRREERDAKLLEAAKAELSAQVAATKE”: the protein production result was “not failed”.
Take “MSPPPAVVTESADGQPEQPPVTAIAEELEKKLQTDEPIVEDVKDDEDDDDDDEEEEDDDAQGVSGSSKQSRSEKKSRKAMLKLGMKPVTGVSRVTIKRTKNVLFFISKPDVFKSPHSETYVIFGEAKIEDLSSQLQTQAAQQFRMPEIGATSQRAEASTATVEAQVEEDEEEIDETGVEARDIDLVMTQAGVSRSKAVKALKSHDGDIVSAIMELTT”: the protein production result is reported as “failed”.
In the case of “MRLMIIFDLPVETSEERKEYRKFRKNLINEGFIMIQYSVYVRVCVNKKSAEFTEKRIESFLPSKGVVQSLILTEKQYNDMHFLLGKKIKEVRNSAERTIIL” it was “failed”; in that of “MTPYTEVELTLIQYVLVVVSGFIIGLILGLIGGGGSILAVPLLLYFVGLGNDSSSFGNYSNITHLVLGTSALAVGLNAYINSFIHWRKGNVKVFEGVVFTIPGVIGSILGAYFGYLTTGNLILIMFGIVMILIGLRMIKSKCKEGSNETKGSGDTGVVKSKDRINIRIIYTGFLVGLASGFLGIGGGFLIVPALLFSTSMSIISAIGTSLISVGTFGLSTALTYASYGEIDYILSLILLAGGVGGGYIGTLLASKSPRSTLRKVFGVVLIVVAIYIIYRNLLL”, “failed”.
Turning to “MFRTSGTKTIVFHCHPRYTMIVCVMEEFCRKKVDGNENNSYLTVCNRKLDQERKEIVMNEKQRLEQTGQIQTASHPADRKSDLERLKAKTTKDYEKYFTSVFLPPNLKEAKKRGKEEVQYVKDFTIPDEFRGMGRGRKFYIRTYGCQMNEHDTEVMAGIFMALGYEPTDRPEDANVILLNTCAIRENAENKVFGELGYLKPLKTTNPDLLLGVCGCMSQEEAVVNKILKQYQYVDLIFGTHNIHRLPYILHEAYMSKEMVVEVWSKEGDVVENLPKVRKGNIKAWVNIMYGCDKFCTYCIVPYTRGKERSRRPEDIIQEVRQLAAQGYKEITLLGQNVNAYGKDFNDIQYGLGDLMDELRKIDIARIRFTTSHPRDFDDRLIEVLAKRGNLVEHIHLPVQSGSTEILKMMGRKYTREEYLELVRKIKAAIPDVALTTDIIVGFPNETDEQFEETLSLYREVEFDSAYTFIYSPREGTPAAKMNDNVPMEVKKERLQRLNALVQEIAAKKMKQYEGQVVEVLVEGESKTNPDVLAGYTRKNKLVHFVGPKSLIGQLVNVRITQAKTWTLTGELANEAIEVN”, the protein production result is “failed”.
As for “MSNVVWTNFGRSSPDRMRARGGKLMAEPDFEAQLTRMFAQAPSFPDAALFNAEVMAKLDRGWAMRRMFIAVAGTGAGLIGAFQIFGSRFSNELAQLSREGSHGLETEINGGWAKLTALLSTPSSAEAVWLAAGLAVVALAFAVTRLVEDF”, the entry is “failed”; as for “IGIVNDMPLAVEALRRALAFEPQHQIVWVASNGAEAVTQCAADTPDVVLMDLLMPVMDGVEATRRIMAESPCAIVIVTVDIEQNVHRVFEAMGYGALDAVNTPALGIGNPQTAAAPLLRKIQNVGWLIGQRDNRGKVQVVPPKAGGARQRLVAIGASAGGPASLAVLLKQLPASFNAAVVLVQHVDEVFAAGMAEWLASESKLPVRLARDGEPPIPGQILLAGTNNHIRLLRNGSLVYTAEPRSFVYRPSIDVFFESVANYWRGDAVGVLLTGMGRDGAQGLKQMRERGFLTIAQDQASCAVYGMPKAAAAIDAAVQILSLEKIA”, “failed”.
In the case of “MLQTINKTLGKIMPLLTPLSVVSGVLLADYLNGLASLVPWIFAFMTFAGSLGANFQSLKTAVAHPLPMFLALFVLHIFMPVLAWSTGHLVFSGDSLTITGLTLGVVIPTGITSMIWAAMYKGNIGLTLSIILVDTILSPFIVPFSLSILAGAHVEMDVIGMMKGLVGMIVIPSLLGMLVNQFSTPERTVRLSANCAPFSKVGLAAVVAINSSVVAPYLKNVDLKFLTIAVTVFLVAFTGYLTAWLIGRLMKRPQEEIVALIFTGGMRNISAGAVLATSFFPPQVAVPVVIGMLFQQILAALFGHLLARSELKKAHHLDKKTSLPS” it was “failed”.
In the case of “MGSIDRYIFRTTLASFALVLVSLTGVIWITQALRGIDLMTSQGQTILTFLGITSLVVPALVLIISPIALMIAISHTLNKLATDSEIIVMNAAGFSPFRLFYPFFYATCVVALLVAFIAAYLAPDGMRRIKQWDAEITADVLTNILQPGRFAQLDKNLTIRIRERLPGGILAGIFIDDRRDPNERVSIVAEHGEVMKNDTGSFLVLETGNLQRFEVGKRDPALVAFGRYGFDMSKFSGQGRDVTLGIRERYLWELFSPSEDDPVYKQIPGQFRSALHDSLLAPIYPFAFAVLTFAFLGAPRTTRQSRNFSIGSSIVAVFGLRMAGFACSVMAVKSPAAVLVQYAMVLGAIGVGMWMIVGGIVVEPPPRLMEAINRSNARIARLFGRPATA” it was “failed”.

The values are drawn from a protein production outcome set (Wang et al. 2014).
